Results on two molecules are retold here after patent publication US6979673 (University of Pennsylvania, dated 2005).

B1: myc-tagged PRL (recombinant human prolactin from Drosophila S2 cells) (ligand, UniProt P01236 29-227, looked up, not shown: small tags and cut ends)
chain: LPICPGGAARCQVTLRDLFDRAVVLSHYIHNLSSEMFSEFDKRYTHGRGFITKAINSCHTSSLATPEDKEQAQQMNQKDFLSLIVSILRSWNEPLYHLVTEVRGMQEAPEAILSKAVEIEEQTKRLLEGMELIVSQVHPETKENEIYPVWSGLPSLQMADEESRLSAYYNLLHCLRRDSHKIDNYLKLLKCRIIHNNNC
notes: mature

The target of assay [1] is recombinant form of cyclophilin family member CypA (UniProt P62937 1-165, limits assumed). Kind of assay: co-immunoprecipitation of admixed recombinant proteins.
For a further assay, the target named is growth hormone (GH) (human, UniProt P01241 27-217). Kind of assay: cell-based or functional assay.
Assay [2] deals with T1, PRL (human prolactin, untagged or form not specified: serum PRL; PRL added to cell cultures) (human, UniProt P01236 29-227).
T1 sequence (looked up): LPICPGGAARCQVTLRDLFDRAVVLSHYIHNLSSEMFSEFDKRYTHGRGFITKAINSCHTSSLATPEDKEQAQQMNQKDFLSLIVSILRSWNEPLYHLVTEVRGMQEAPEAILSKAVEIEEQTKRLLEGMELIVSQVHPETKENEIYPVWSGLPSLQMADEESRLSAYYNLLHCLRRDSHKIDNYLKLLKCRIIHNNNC
Kind of assay: cell-based or functional assay.

Assay [3] concerns the target B1. As to the kind of experiment: co-immunoprecipitation of admixed purified proteins, with cyclosporin A against without.

Sequence of recombinant form of cyclophilin family member CypA (P62937 whole entry): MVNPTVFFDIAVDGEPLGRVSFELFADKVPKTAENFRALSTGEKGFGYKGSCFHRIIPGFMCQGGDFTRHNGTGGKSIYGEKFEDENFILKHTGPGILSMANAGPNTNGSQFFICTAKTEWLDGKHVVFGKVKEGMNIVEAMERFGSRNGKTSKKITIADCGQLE
Sequence of growth hormone (GH) (P01241 27-217 limits assumed): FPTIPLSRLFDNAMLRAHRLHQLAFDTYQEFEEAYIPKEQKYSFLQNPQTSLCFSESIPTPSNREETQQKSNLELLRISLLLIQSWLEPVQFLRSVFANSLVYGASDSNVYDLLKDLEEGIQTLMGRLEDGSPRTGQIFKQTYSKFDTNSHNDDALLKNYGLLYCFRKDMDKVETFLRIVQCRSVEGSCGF

As to B1, in assay [1], the binding result was “no binding”.

B2: His-tagged CypB (cyclophilin B, recombinant, V5/His-tagged, from Drosophila S2 cells) (enzyme)
chain: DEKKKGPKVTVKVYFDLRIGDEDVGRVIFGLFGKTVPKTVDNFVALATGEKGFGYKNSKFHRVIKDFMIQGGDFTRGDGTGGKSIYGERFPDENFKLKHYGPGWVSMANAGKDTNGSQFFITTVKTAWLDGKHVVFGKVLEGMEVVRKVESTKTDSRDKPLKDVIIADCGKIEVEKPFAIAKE
notes: also called wild-type CypB; sepharose-conjugated, recombinant CypB; not shown: C-terminal bifunctional V5/His-tag of vector pAc5/V5-HisA
Turning to B2, the GH-driven proliferation with growth hormone (GH) came out at 40 fold. Also, the “PRL-driven growth of Nb2 cells (3H-thymidine)” value in assay [2] was not above 8 fold. Also, the “fold enhancement of the interaction on addition of CsA” value in assay [3] is approximately 10 fold.
